Patent US11945844B2, “Taste and flavor-modifier proteins” (AMAI PROTEINS LTD., priority 2018, dated 2024)
Changes are numbered by the printed parent chain. Names may count otherwise.

Columns and labels:
healthy assessors [1] = test: Example 1C: double-blind taste assay, sweet taste threshold in solution; assay type: in vivo, human; settings: for sweetness potency compatible with / simulating 1 °Bx sugar solution: relative to sucrose
Experimental: The solutions that were used in this study are detailed in Table 4. The solutions were prepared as follows: for each solution, an amount sweetener (sucrose/MNEI/Designer Protein; See Table 1 for details) was added as indicated in Table 6 and the solution was completed to 100 g with water (in order to obtain 1% sugar equivalent sweetener). 20 ml of each solution was poured into tasting cup and each sample was marked for blind testing according to Table 6. To evaluate the sweetness threshold for each one of the […] solutions, a double-blind taste assay was performed. The samples tested included MNEI, […] ([…]), sucrose and mineral water. A series of concentrations were prepared by diluting the stock solution of proteins with mineral water (pH 6.9) shortly before the taste assay (Table 6). Six healthy assessors participated in this session, 5 men and 1 woman, 30-75 years old of which half were trained tasters The sweetness detection threshold was defined as the lowest concentration at which the taster recognized the sample as sweet. Sweetness potencies are reported relative to sucrose. Twenty ml samples were tested randomly, in comparison to sugar solution. Before each assay, assessors were requested to rinse their mouth with water and to eat a neutral-taste cracker until no residual taste remained. The test solution was held in the mouth for at least 10 seconds. The assessors then graded the sample according to their response between 0-10; 0-no sweet perception, 10-very sweet. The sweetness detection threshold was defined as the lowest concentration at which the taster recognized the sample as sweet. Sweetness potencies are reported relative to sucrose.

trained participants = test: Example 1D: blind testing of sweetness potency, aftertaste and lingering in comparison to sugar solution; assay type: in vivo, human; settings: for sweetness potency at 8 °BX perception, greater than sugar / sweetness threshold, greater than sugar by weight: fold over sugar
Experimental: Based on the optimization above, the sweetness potency, the aftertaste and the lingering effect of DM08 and DM09 were tested as compared with MNEI and additional sweeteners as shown in Table 7. Test method included blind testing in 6 trained participants of each one of the proteins in comparison to sugar solution.

participants = test: Example 1D: blind comparison of combinations at 8.0° BX perception with 3.0° BX sugar addition; assay type: in vivo, human; settings: 8.0 °BX perception (3.0° BX sugar addition)
Experimental: Further combinations were tested in blind comparison of the various combinations to sugar solution in 6 participants.

healthy assessors [2] = test: Example 1B: double-blind taste assay, sweet taste threshold in soft drink model solution; assay type: in vivo, human; settings: for sweetness average score: grade 0-10; for sweetness potency simulating 1 °Bx perception: relative to sucrose
Experimental: The sweetness potency of MNEI-based proteins described herein relative to sucrose is typically in the range of 1:700 to 1:16,000. Thus, for the sake of comparison, the MNEI-based proteins and MNEI (as a reference protein) solutions were initially diluted 1:1000 and further diluted as needed. In general, the sweetness threshold of sugar for most people in soft drinks is 0.32%-1.0%. Calculations of MNEI-based proteins and MNEI (as a reference protein concentrations were carried out accordingly. The solutions that were used in this study are detailed in Table 5. The solutions were prepared as follows: for each solution, an amount sweetener (sucrose/MNEI/Designer (modified) Protein; See Table 1 for details) was added as indicated in Table 3 and the solution was completed to 100 g with water (in order to obtain 1% sugar equivalent sweetener). 20 ml of each solution was poured into tasting cup and each sample was marked for blind testing according to Table 5. To evaluate the sweetness threshold for each one of the […] solutions, a double-blind taste assay was performed. The samples tested included MNEI, two MNEI designer proteins (DM08 and DM10), sucrose and mineral water. A series of concentrations were prepared by diluting the stock solution of proteins with mineral water (pH 6.9) shortly before the taste assay (Table 3). Five healthy assessors participated in this session, 2 men and 3 women, 30-50 years old of which 3 were trained tasters. Twenty ml samples were tested randomly, in comparison to sugar solution. Before each assay, assessors were requested to rinse their mouth with water and to eat a neutral-taste cracker until no residual taste remained. The test solution was held in the mouth for at least 10 seconds. The assessors then graded the sample according to their response between 0-10; 0-no sweet perception, 10-very sweet. The sweetness detection threshold was defined as the lowest concentration at which the taster recognized the sample as sweet. Sweetness potencies are reported relative to sucrose.

[3] = single substitution in MNEI, Zheng et al; cited from earlier work
[4] = single substitution in MNEI, Zheng et al; cited from earlier work; remark: listed apart in the source
Shelf life stability = assay type: physicochemical; settings: at 4° C.
Experimental: In some embodiments the modified protein has improved shelf life relative to the reference protein. Improved shelf life refers to no sensed change in the sweetness (function) or physical deterioration of a product comprising the composition (e.g. color change, phase separation etc.) after exposure of the product to any temperature up to 150° C., at times, to any temperature between 4° C. to 150°, or to 100°.

[5] = Sweetness potency relative to MNEI (Table 10); assay type: in vivo; settings: MNEI = 1.0
[6] = Structural thermal stability (Tm); assay type: physicochemical
Source text: The term “structural thermal stability” or “thermal stability” as used herein refers to the ability of the modified protein to retain its 3D structure at temperatures above that of the reference protein. The 3D structural stability of a protein can be measured by any method known in the art, such as Circular Dichroism (CD), or thermal shift assays such as Differential Scanning Fluorimetry (DSF) or Differential Scanning calorimetry (DSC). The 3D structure of a protein may have an effect on the function of the protein.

[7] = dilution factor 1:500, grade 0-10
[8] = dilution factor 1:1,000, grade 0-10
[9] = dilution factor 1:2,000, grade 0-10

**Q.** Which sweetness average score (healthy assessors [1]; 0.5% sucrose solution, grade 0-10, 6 assessors) does the source give for `OC[C@H]1O[C@@](CO)(O[C@H]2O[C@H](CO)[C@@H](O)[C@H](O)[C@H]2O)[C@@H](O)[C@@H]1O` [Sucrose, reference compound] here?
**A.** Its sweetness average score is 1.9±0.9.

**Q.** What about the sweetness average score (healthy assessors [1]; 1% sucrose solution, grade 0-10, 6 assessors) of the same molecule?
**A.** The sweetness average score was 3.8±1.9.

**Q.** And the Estimated threshold concentration (trained participants; ratio relative to sucrose, 6 trained participants)?
**A.** Its Estimated threshold concentration is 1.

**Q.** And the “Additional After Taste & Notes” value (trained participants; single sweetener (Table 7))?
**A.** The value was “No”.

**Q.** And the Late onset (trained participants; single sweetener (Table 7))?
**A.** Its Late onset is “No”.

**Q.** What about the “Lingering After Taste” value (trained participants; single sweetener (Table 7)) of the same molecule?
**A.** Its value is “No”.

**Q.** And the “After Taste” value (participants)?
**A.** The value was “No”.

**Q.** What about the Late onset (participants) of the same molecule?
**A.** Its Late onset is “No”.

**Q.** What about the Lingering (participants) of the same molecule?
**A.** Its Lingering is “No”.

**Q.** And the sweetness average score (healthy assessors [2]; 0.5% sucrose solution, 5 assessors)?
**A.** The sweetness average score was 0.63±0.6.

**Q.** What about the sweetness average score (healthy assessors [2]; 1% sucrose solution, 5 assessors) of the same molecule?
**A.** The sweetness average score was 1.25±0.9.

B1: E2N: MNEI with amino acid substitution E2N, CPD model; also reported by Zheng et al (protein)
chain: GNWEIIDIGPFTQNLGKFAVDEENKIGQYGRLTFNKVIRPCMKKTIYENEGFREIKGYEYQLYVYASDKLFRADISEDYKTRGRKLLRFNGPVPPP
modifications: Monelin MNEI
notes: MNEI with amino acid substitution E2N, CPD model; also reported by Zheng et al
**Q.** With B1 as the molecule, how does the stability [3] read?
**A.** The stability was “slight reduced stability”.

**Q.** And the improved sweetness [4]?
**A.** Its improved sweetness is 3 fold.

B2: DM08: modified MNEI protein, SEQ ID NO:16, E2N/E23V/Y65K (protein)
chain: B1 chain with E23V, Y65K
modifications: DM8
**Q.** What does the source list for B2?
**A.** shelf life stability (Shelf life stability): At least 6 months; Sweetness Potency relative to MNEI [5]: 6.0; sweetness potency at 8 °BX perception, greater than sugar (trained participants): 3,500; sweetness threshold, greater than sugar by weight (trained participants): 10,000; Additional After Taste & Notes (trained participants; single sweetener (Table 7)): Low bitterness; Lingering After Taste (trained participants; single sweetener (Table 7)): Sweet lingering; Tm (° C.) Structural thermal stability [6]: 81 °C; sweetness potency simulating 1 °Bx perception (healthy assessors [2]): about 10,000

B3: DM12: modified MNEI protein, SEQ ID NO: 20, I8T/C41T as printed in Table 4 (protein)
chain: B1 chain with N2E, I8T, C41T, R84L
modifications: DM12
**Q.** What does the source list for B3?
**A.** sweetness average score (healthy assessors [1]; all dilution factors (1:500, 1:1,000, 1:2,000), no noticeable dose response): ~1.0; Sweetness Potency relative to MNEI [5]: 0.5; Tm (° C.) Structural thermal stability [6]: 65 °C

B4: MNEI: single chain Monellin (MNEI) reference protein, SEQ ID NO:5, 96 amino acids (protein)
chain: B1 chain with N2E
modifications: Monelin MNEI
**Q.** With B4 as the molecule, how does the sweetness average score (healthy assessors [1]; [7]) read?
**A.** The sweetness average score was 4.7±3.2.

**Q.** What about the sweetness average score (healthy assessors [1]; [8]) of the same molecule?
**A.** Its sweetness average score is 2.5±1.4.

**Q.** What about the sweetness average score (healthy assessors [1]; [9]) of the same molecule?
**A.** The sweetness average score was 1.0±0.7.

**Q.** What about the “sweetness potency compatible with / simulating 1 °Bx sugar solution” value (healthy assessors [1]) of the same molecule?
**A.** The value was “about 1,000”.

**Q.** And the shelf life stability (Shelf life stability)?
**A.** Its shelf life stability is “At least 12 months”.

**Q.** And the “Sweetness Potency relative to MNEI” value [5]?
**A.** The value was 1.0.

**Q.** What about the “Lingering After Taste” value (trained participants; single sweetener (Table 7)) of the same molecule?
**A.** Its value is “Sweet lingering”.

**Q.** And the “Tm (° C.) Structural thermal stability” value [6]?
**A.** Its value is 69 °C.

**Q.** And the sweetness average score (healthy assessors [2]; dilution factor 1:1,000)?
**A.** The sweetness average score was 2.2±1.0.

**Q.** What about the sweetness average score (healthy assessors [2]; dilution factor 1:2,000) of the same molecule?
**A.** The sweetness average score was 0.98±0.4.

**Q.** What about the sweetness average score (healthy assessors [2]; dilution factor 1:4,000) of the same molecule?
**A.** Its sweetness average score is 0.68±0.2.

**Q.** What about the “sweetness potency simulating 1 °Bx perception” value (healthy assessors [2]) of the same molecule?
**A.** The value was “about 2,000”.

B5: DM03: modified MNEI protein, SEQ ID NO: 15, E2N/I8T/N14K/E23A/Q28K/R31T/N35T/C41T/Y65K/S67N/R84L (protein)
chain: B1 chain with I8T, N14K, E23A, Q28K, R31T, N35T, C41T, Y65K, S67N, R84L
modifications: DM3
**Q.** Which “Sweetness Potency relative to MNEI” value [5] does the source give for B5 here?
**A.** The value was “Not sweet at all”.

**Q.** And the “Tm (° C.) Structural thermal stability” value [6]?
**A.** The value was 81.5 °C.

B6: DM09: modified MNEI protein, SEQ ID NO:17, E2N/E23A/Y65R (protein)
chain: B1 chain with E23A, Y65R
modifications: DM9
**Q.** With B6 as the molecule, how does the shelf life stability (Shelf life stability) read?
**A.** The shelf life stability was “At least 6 months”.

**Q.** And the “Sweetness Potency relative to MNEI” value [5]?
**A.** The value was 7.5.

**Q.** And the “sweetness potency at 8 °BX perception, greater than sugar” value (trained participants)?
**A.** The value was 4,000.

**Q.** What about the “sweetness threshold, greater than sugar by weight” value (trained participants) of the same molecule?
**A.** Its value is 15,000.

**Q.** What about the “Tm (° C.) Structural thermal stability” value [6] of the same molecule?
**A.** Its value is 81 °C.

**Q.** What about the “melting temperature compared with MNEI” value ([6]; summary of Table 10) of the same molecule?
**A.** Its value is “at least equal or improved”.

B7: DM10: modified MNEI protein, SEQ ID NO: 18, Q28K/R31T/N35T/S67N (protein)
chain: B1 chain with N2E, Q28K, R31T, N35T, S67N
modifications: DM10
**Q.** Which results are given for B7?
**A.** Sweetness Potency relative to MNEI [5]: 0.5; Tm (° C.) Structural thermal stability [6]: 71 °C; sweetness potency simulating 1 °Bx perception (healthy assessors [2]): about 1,000

B8: DM11: modified MNEI protein, SEQ ID NO: 19, I8T/N14K/C41T/R84L (protein)
chain: B1 chain with N2E, I8T, N14K, C41T, R84L
modifications: DM11
**Q.** Which sweetness average score (healthy assessors [1]; [7]) does the source give for B8 here?
**A.** Its sweetness average score is 0.0±0.0.

**Q.** What about the sweetness average score (healthy assessors [1]; [8]) of the same molecule?
**A.** The sweetness average score was 0.3±0.8.

**Q.** What about the sweetness average score (healthy assessors [1]; [9]) of the same molecule?
**A.** Its sweetness average score is 0.4±0.9.

**Q.** What about the “sweetness potency compatible with / simulating 1 °Bx sugar solution” value (healthy assessors [1]) of the same molecule?
**A.** The value was “below 500”.

**Q.** What about the “Sweetness Potency relative to MNEI” value [5] of the same molecule?
**A.** Its value is 0.2.

**Q.** What about the “Tm (° C.) Structural thermal stability” value [6] of the same molecule?
**A.** Its value is 69 °C.
